For the test, the target named is untagged RNF8 FHA domain (UniProt O76064). The test is described as follows: ITC.
Chain of UniProt O76064 (O76064 38-92): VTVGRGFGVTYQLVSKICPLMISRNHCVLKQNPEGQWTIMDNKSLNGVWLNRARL

The term Kd denotes a measure of binding affinity in units of concentration. The substance ICP0 pT67 peptide returned a Kd of 833 nM. That is a sub-micromolar value.
